Values joined by “and” are separate entries in the source; they are usually repeats but may differ in a detail not shown here. Identical values can stand only once.
B1: Nanobody NB7-PIK3CG (VHH)
VHH: QVQLVESGGGLVQPGGSLRLSCAASGSIFSINAMGWYRQAPGKQRELVAHITSGGSTNYADSVKGRFTISRDNAKNTVYLQMNSLKPEDTAVYYCNEAGDPFLGSTWNGPPAFGSWGQGTQVTVSS
notes: the nanobody chain of PDB 8DP0 (deposited here); Expressed from a pMESy4 vector; also called His-NB7; nanobody 7; source: E. coli WK6 periplasm, purified (HisTrap, Superdex 75); not shown: His6, C-terminal, kept
B2: Nanobody NB7-PIK3CG (VHH)
VHH: QVQLVESGGGLVQPGGSLRLSCAASGSIFSINAMGWYRQAPGKQRELVAHITSGGSTNYADSVKGRFTISRDNAKNTVYLQMNSLKPEDTAVYYCNEAGDPFLGSTWNGPPAFGSWGQGTQVTVSS
notes: Expressed from a pMESy4 vector; first described in Rathinaswamy et al., 2021b; also called His-NB7; nanobody 7; source: periplasm of WK6 E. coli, purified (HisTrap, Superdex 75); not shown: His6, C-terminal, kept

What was measured:
Conditions in all cases: both partners purified
p110γ-p101 complex [1] = molecular target: T1, p110γ-p101 complex (Homo sapiens p110γ; Sus scrofa p101, UniProt P48736;PDB); experiment: BLI; His-tagged NB7 (500 nM) immobilised on Anti-Penta-His biosensor; PI3K complexes in solution (dose response 50-1.9 nM; class IA comparison at 50 nM); 600 s association, 1200 s dissociation; 20 mM Tris pH 8.5, 100 mM NaCl, 50 mM ammonium sulfate, 0.1% BSA, 0.02% Tween 20; global fit to a 1:1 model
T1 construct: Homo sapiens p110γ (PIK3CG), full-length; Sus scrofa p101 regulatory subunit of PI3Kγ; The purification tag stood on p101 only; also called PI3Kγ p110γ-p101; not shown: His10, N-terminal, cleaved; 2x Strep, N-terminal, cleaved
T1 sequence (P48736 whole entry, chain 1 of 2): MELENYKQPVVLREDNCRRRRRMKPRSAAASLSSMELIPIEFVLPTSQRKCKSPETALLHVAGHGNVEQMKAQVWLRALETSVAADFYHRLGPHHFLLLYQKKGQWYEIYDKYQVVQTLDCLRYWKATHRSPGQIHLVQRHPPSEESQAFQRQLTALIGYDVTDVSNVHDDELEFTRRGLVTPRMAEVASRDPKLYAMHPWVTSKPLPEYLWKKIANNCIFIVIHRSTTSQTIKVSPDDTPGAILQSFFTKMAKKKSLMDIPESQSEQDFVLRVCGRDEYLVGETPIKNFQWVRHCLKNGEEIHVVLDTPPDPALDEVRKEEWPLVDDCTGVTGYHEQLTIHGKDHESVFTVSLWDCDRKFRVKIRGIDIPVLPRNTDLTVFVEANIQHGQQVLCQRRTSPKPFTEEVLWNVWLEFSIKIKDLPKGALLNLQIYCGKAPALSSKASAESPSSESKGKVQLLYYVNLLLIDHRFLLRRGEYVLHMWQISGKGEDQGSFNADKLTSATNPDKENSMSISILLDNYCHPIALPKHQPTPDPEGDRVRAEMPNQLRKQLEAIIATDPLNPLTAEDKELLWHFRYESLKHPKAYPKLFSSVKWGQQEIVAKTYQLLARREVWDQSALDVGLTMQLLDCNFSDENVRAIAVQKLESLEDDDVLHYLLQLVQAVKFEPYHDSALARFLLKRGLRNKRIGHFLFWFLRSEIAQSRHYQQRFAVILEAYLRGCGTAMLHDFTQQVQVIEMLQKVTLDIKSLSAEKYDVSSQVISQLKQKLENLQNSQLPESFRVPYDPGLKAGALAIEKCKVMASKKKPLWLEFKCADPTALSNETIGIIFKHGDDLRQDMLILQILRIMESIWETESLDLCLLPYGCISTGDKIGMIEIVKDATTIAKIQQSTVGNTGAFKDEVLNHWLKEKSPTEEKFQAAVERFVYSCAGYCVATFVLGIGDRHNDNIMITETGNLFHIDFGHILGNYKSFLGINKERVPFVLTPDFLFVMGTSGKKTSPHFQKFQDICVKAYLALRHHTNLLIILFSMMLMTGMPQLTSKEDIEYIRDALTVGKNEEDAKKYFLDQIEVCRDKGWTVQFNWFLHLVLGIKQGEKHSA
T1 sequence (O02696 whole entry, chain 2 of 2, further chain): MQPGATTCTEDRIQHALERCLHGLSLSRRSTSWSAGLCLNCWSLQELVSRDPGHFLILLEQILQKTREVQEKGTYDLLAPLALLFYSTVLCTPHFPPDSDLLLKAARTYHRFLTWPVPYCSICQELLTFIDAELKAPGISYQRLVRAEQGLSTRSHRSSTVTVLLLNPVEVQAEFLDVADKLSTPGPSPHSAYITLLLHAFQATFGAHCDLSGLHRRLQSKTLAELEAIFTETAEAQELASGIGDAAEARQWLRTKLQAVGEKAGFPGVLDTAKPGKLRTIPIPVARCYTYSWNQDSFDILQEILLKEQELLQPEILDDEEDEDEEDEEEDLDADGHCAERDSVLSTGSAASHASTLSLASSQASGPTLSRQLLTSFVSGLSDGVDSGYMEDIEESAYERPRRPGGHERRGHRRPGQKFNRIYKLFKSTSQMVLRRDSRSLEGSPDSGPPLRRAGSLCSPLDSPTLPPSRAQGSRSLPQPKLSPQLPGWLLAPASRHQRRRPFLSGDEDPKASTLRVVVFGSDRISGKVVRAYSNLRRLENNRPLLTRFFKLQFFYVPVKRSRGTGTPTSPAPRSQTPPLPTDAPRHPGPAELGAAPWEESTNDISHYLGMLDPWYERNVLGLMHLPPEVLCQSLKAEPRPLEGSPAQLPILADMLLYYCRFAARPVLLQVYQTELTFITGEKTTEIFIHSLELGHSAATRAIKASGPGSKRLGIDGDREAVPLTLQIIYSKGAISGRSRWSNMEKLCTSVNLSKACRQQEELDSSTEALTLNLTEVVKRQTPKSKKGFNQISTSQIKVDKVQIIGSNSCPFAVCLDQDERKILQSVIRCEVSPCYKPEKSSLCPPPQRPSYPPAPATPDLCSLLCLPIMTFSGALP

p110γ-p84 complex = molecular target: T2, p110γ-p84 complex (Homo sapiens p110γ; Mus musculus p84, UniProt P48736;Q3U6Q4); experiment: as above
T2 construct: Homo sapiens p110γ (PIK3CG), full-length; Mus musculus p84 regulatory subunit of PI3Kγ; The purification tag stood on p84 only; also called PI3Kγ p110γ-p84; not shown: His10, N-terminal, cleaved; 2x Strep, N-terminal, cleaved
T2 sequence (P48736 whole entry, chain 1 of 2): as the sequence (P48736 whole entry, chain 1 of 2) above
T2 sequence (Q3U6Q4 whole entry, chain 2 of 2): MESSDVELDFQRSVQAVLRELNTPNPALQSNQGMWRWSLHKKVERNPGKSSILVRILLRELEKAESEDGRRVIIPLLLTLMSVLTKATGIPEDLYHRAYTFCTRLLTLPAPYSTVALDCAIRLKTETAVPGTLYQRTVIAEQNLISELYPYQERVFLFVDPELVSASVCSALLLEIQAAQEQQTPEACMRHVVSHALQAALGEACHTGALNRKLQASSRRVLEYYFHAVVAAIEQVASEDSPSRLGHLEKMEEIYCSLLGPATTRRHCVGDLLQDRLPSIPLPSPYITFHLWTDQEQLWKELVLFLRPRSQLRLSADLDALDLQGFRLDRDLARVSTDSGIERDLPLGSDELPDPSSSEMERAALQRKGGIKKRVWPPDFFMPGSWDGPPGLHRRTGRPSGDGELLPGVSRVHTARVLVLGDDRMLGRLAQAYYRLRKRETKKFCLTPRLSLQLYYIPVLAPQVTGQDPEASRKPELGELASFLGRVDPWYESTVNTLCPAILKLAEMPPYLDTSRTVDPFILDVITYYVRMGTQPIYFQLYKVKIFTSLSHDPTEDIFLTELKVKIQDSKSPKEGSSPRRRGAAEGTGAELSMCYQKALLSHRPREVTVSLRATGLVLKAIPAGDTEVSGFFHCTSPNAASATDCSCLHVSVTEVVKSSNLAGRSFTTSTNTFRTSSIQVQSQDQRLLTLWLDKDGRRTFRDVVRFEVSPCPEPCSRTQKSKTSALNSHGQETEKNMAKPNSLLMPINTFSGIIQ

p110α-p85 complex = molecular target: T3, p110α-p85 complex (Homo sapiens (assumed), UniProt P42336;O00459); experiment: as above
T3 construct: p110α catalytic subunit of class IA PI3K; plasmid as previously described; p85 regulatory subunit; the legend says only p85; also called PI3Kα

p110β-p85 complex = molecular target: T4, p110β-p85 complex (Homo sapiens (assumed), UniProt P42338;O00459); experiment: as above
T4 construct: p110β catalytic subunit of class IA PI3K; plasmid as previously described; p85 regulatory subunit; the legend says only p85; also called PI3Kβ

p110δ-p85 complex = molecular target: T5, p110δ-p85 complex (Homo sapiens (assumed), UniProt O00329;O00459); experiment: as above
T5 construct: p110δ catalytic subunit of class IA PI3K; plasmid as previously described; p85 regulatory subunit; the legend says only p85; also called PI3Kδ

p110γ-p101 complex [2] = molecular target: T6, p110γ-p101 complex (Homo sapiens p110γ; Sus scrofa p101, UniProt P48736;PDB); experiment: BLI; His-NB7 (500 nM) immobilised on Anti-Penta-His (HIS1K) biosensor, dipped into p110γ, p110γ-p84 or p110γ-p101 (50-1.9 nM); association 600 s, dissociation 1200 s; Octet buffer 20 mM Tris pH 8.5, 100 mM NaCl, 50 mM ammonium sulfate, 0.1% BSA, 0.02% Tween 20; 1:1 model; the sheet gives one set of constants for each analyte concentration (column Conc. (nM))
T6 construct: p110γ, Homo sapiens, from plasmid pMultiBac-hsp110γ-ssp101; p101 regulatory subunit, Sus scrofa, from plasmid pMultiBac-hsp110γ-ssp101; The purification tag stood on the N-terminus of p101 and was removed by TEV protease; also called p110gp101; not shown: 10x histidine, N-terminal, cleaved; 2x strep, N-terminal, cleaved
T6 sequence (P48736 whole entry, chain 1 of 2): as the sequence (P48736 whole entry, chain 1 of 2) above
T6 sequence (O02696 whole entry, chain 2 of 2, further chain): as the sequence (O02696 whole entry, chain 2 of 2, further chain) above

Binder	Kd (p110γ-p101 complex [1]) [nM]	Kd (p110γ-p84 complex) [nM]	binding result (p110α-p85 complex)	binding result (p110β-p85 complex)	binding result (p110δ-p85 complex)	kon (p110γ-p101 complex [2])
B1	~2	~2	no binding (tested: 50 nM)	no binding (tested: 50 nM)	no binding (tested: 50 nM)	–
B2	–	–	–	–	–	105000 M⁻¹ s⁻¹ and 111000 M⁻¹ s⁻¹ and 50200 M⁻¹ s⁻¹
